The text below walks through data of patent US20220291215A1 (UNIVERSITY HEALTH NETWORK, published 2022).

The target of test [1] is T1, recombinant 10x His-tagged CD4 protein (extracellular domain of human CD4, GS linker, 10x histidine tag) (human, UniProt P01730 26-390).
T1 construct: also called recombinant CD4; sCD4 (analyte)
In words: biolayer interferometry. In general terms: BLI is a label-free optical method that tracks binding on a fibre tip over time.

Test [2] has as its target T1, recombinant 10x His-tagged CD4 protein …. In words: biolayer interferometry KD against the previously estimated KD >2 mM between CD4 and HLA class II.
The target is the same in test [3]. In words: biolayer interferometry (Octet Red), biotinylated DP4 on streptavidin sensors, CD4 as analyte, steady-state analysis.

Usually Kd stands for the equilibrium constant for the complex coming apart.

B1: biotinylated recombinant wild-type DP4 (extracellular domains of DPA1*01:03 and wild-type DPB1*04:01 with leucine zippers) (peptide-MHC)
MHC II alpha: IKADHVSTYAAFVQTHRPTGEFMFEFDEDEMFYVDLDKKETVWHLEEFGQAFSFEAQGGLANIAILNNNLNTLIQRSNHTQATNDPPEVTVFPKEPVELGQPNTLICHIDKFFPPVLNVTWLCNGELVTEGVAESLFLPRTDYSFHKFHYLTFVPSAEDFYDCRVEHWGLDQPLLKHWEAQEPIQMPETTETGGGGSLEIRAAFLRQRNTALRTEVAELEQEVQRLENEVSQYETRYGPLGGGKGSHHHHHHHHHH
MHC II beta: RATPENYLFQGRQECYAFNGTQRFLERYIYNREEFARFDSDVGEFRAVTELGRPAAEYWNSQKDILEEKRAVPDRMCRHNYELGGPMTLQRRVQPRVNVSPSKKGPLQHHNLLVCHVTDFYPGSIQVRWFLNGQEETAGVVSTNLIRNGDWTFQILVMLEMTPQQGDVYTCQVEHTSLDSPVTVEWKAQSDSARSKGGGGSLEIEAAFLERENTALETRVAELRQRVQRLRNRVSQYRTRYGPLGGGKGSGLNDIFEAQKIEWHE
notes: also called biotinylated wild-type DP4 (ligand)
Take B1: the binding result in test [1] was “no binding (tested: 26 µM)”.

B2: biotinylated recombinant DP4^L112W/V141M (extracellular domains of DPA1*01:03 and DPB1*04:01 L112W/V (peptide-MHC)
MHC II alpha: IKADHVSTYAAFVQTHRPTGEFMFEFDEDEMFYVDLDKKETVWHLEEFGQAFSFEAQGGLANIAILNNNLNTLIQRSNHTQATNDPPEVTVFPKEPVELGQPNTLICHIDKFFPPVLNVTWLCNGELVTEGVAESLFLPRTDYSFHKFHYLTFVPSAEDFYDCRVEHWGLDQPLLKHWEAQEPIQMPETTETGGGGSLEIRAAFLRQRNTALRTEVAELEQEVQRLENEVSQYETRYGPLGGGKGSHHHHHHHHHH
MHC II beta: RATPENYLFQGRQECYAFNGTQRFLERYIYNREEFARFDSDVGEFRAVTELGRPAAEYWNSQKDILEEKRAVPDRMCRHNYELGGPMTLQRRVQPRVNVSPSKKGPLQHHNWLVCHVTDFYPGSIQVRWFLNGQEETAGVMSTNLIRNGDWTFQILVMLEMTPQQGDVYTCQVEHTSLDSPVTVEWKAQSDSARSKGGGGSLEIEAAFLERENTALETRVAELRQRVQRLRNRVSQYRTRYGPLGGGKGSGLNDIFEAQKIEWHE
notes: also called DPR^L112/V141M; biotinylated DP4^L112W/V141M (ligand)
As for B2, the “fold improvement in the binding affinity” value in test [2] is ≥ 200 fold. The Kd in test [3] came to 8.9 µM.
